Molecular target: biotinylated soluble single-chain Vb8-Va3 TCR (mouse)
Experiment: flow cytometry titration of whole yeast cells with biotinylated scTCR, Scatchard analysis; assumes 100% active scTCR

Kd: 500 nM
Substance: wt scFv-KJ16 displayed on yeast as Aga2p-HA-scFv-KJ16-c-myc fusion (from UniProt P32781 19-87)

— patent US7465787
